Results as given in patent US20150072922A1, “RNASE 7 ANTIMICROBIAL PEPTIDES” (THE RESEARCH INSTITUTE AT NATIONWIDE CHILDREN'S HOSPITAL, priority 2012, published 2015).
Entries after “also recorded” stand apart in the source; their conditions may differ.

How the values were obtained:
[1] = system: Escherichia coli (UTI89); test: Antimicrobial kill (microdilution) assay, MIC/MBC by CFU count; format: cell-based
Method in brief: (§1)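 Bacteria (10^5 or 10^4 CFU) were exposed to graded RNase 7 or fragment concentrations in 0.1×PBS for 3 h at 37° C, then plated and counted as CFU after overnight growth at 37° C. MIC: lowest concentration inhibiting 90% of inoculum growth versus untreated bacteria. MBC: lowest concentration leaving […] of inoculum viable.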

[2] = system: Staphylococcus saprophyticus (ATCC 15305); test: as above; format: cell-based
Method in brief: as §1

[3] = system: S. Saprophyticus (ATCC 15305); test: Live/Dead BacLight bacterial viability assay (confocal imaging); format: cell-based, Staphylococcus saprophyticus; settings: 1 μM
Procedure: (§2) Bacterial viability assays were performed using a Live/Dead BacLight™ bacterial viability kit (Invitrogen). Uropathogenic E. coli (UTI-89) and S. Saprophyticus (ATCC 15305) were grown at 37° C. to the mid-log phase, centrifuged at 5000 rpm for 5 min, and resuspended in water with an OD=0.2. Bacteria were stained using a 1:1 mixture of a green-fluorescent STY®9 dye and a red-fluorescent propidium iodide dye as provided in the Live/Dead BacLight™ bacterial viability kit. SYTO®9 labels both live and dead bacteria. Propidium iodide penetrates only bacteria with damaged membranes. Consequently, live bacteria with intact membranes fluoresce green, while dead bacteria with damaged membranes fluoresce red. […]. 50 uL of stained uropathogenic bacteria was mixed with recombinant RNase 7 or RNase 7 fragments to achieve a final concentration of 3 uM and 1 uM. 10 uL of this mixture was added to poly-1-lysine coated microscope slides (Polysciences, Inc, Warrington, Pa., USA) and confocal images of the bacteria were obtained using a Zeiss LSM 700 confocal laser scanning microscope (Carl Zeiss LLC, Thornwood, N.Y., USA). SYTO®9 was excited using an argon laser (448-500 nm emission collected) and propidium iodide was excited using an orange diode (555-600 nm emission collected). Samples were imaged in triplicate.
(§3) For images of intact versus disrupted membranes of dying/dead cells, the Live/Dead BacLight™ bacterial viability kit (Invitrogen) was used. E. coli and S. saprophyticus were grown at 37° C. to the mid-log phase, centrifuged at 5000 rpm for 5 min, and resuspended in water to an OD600 of 0.2. Bacteria were incubated in a 1:1 mixture of Live/Dead BacLight™ bacterial viability assay. A bacterial aliquot of 50 μL was mixed with recombinant RNase 7 or recombinant fragments to achieve a final concentration of 1 μM. Ten microliters of this mixture was added to poly-1-lysine coated microscope slides (Polysciences, Inc, Warrington, Pa., USA), and images were obtained in triplicate using a Zeiss LSM 710 confocal laser scanning microscope (Carl Zeiss LLC, Thornwood, N.Y., USA).

[4] = system: Proteus mirabilis (ATCC 7002); test: Antimicrobial kill (microdilution) assay, MIC/MBC by CFU count; format: cell-based
Method in brief: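 P. mirabilis (ATCC 7002) grown in LB, 10^4 CFU incubated with graded RNase 7 or fragments in 0.1×PBS, 3 h, 37 °C; plated on MacConkey II agar overnight at 37 °C for CFU counts. MIC: lowest concentration inhibiting 90% vs untreated; MBC: lowest concentration leaving […] of inoculum viable.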

[5] = system: E. coli; test: Urinary condition functional assay (OD600 growth curves); format: cell-based, Escherichia coli
Procedure: (§4) Because the urinary environment can have significant variation in salt concentration, ionic composition, and pH, an antimicrobial/bacteriostatic assay was performed to evaluate if pH, calcium, or ionic strength affects the activity of full-length RNase7 or its fragments. The highest activity fragment F:1-97 and lowest activity fragment F:72-128 for these experiments were chosen. Bacteria were inoculated in 1% peptone water and growth to log phase with OD600=0.5. Bacteria were diluted to 1:10 and 1 μl added to 100 μl of 1% peptone water with various pH, CaCl2 or NaCl concentrations that correspond to a physiologic range present in the urine in a 96-well flat bottom plate (Thermo Scientific, Nunc, Worcester, Mass.). To each well, 2 μM of RNase7 or its fragments were added.
(§5) Bacterial growth was monitored using an Absorbance microplate reader (BioTek Instruments, Winooski, Vt.) at a final volume of 110 μl. The turbidity of the culture was measured and recorded at t=0 and every 20 min thereafter for 10 hours using the absorbance at 600 nm (OD600). The values of OD600 values were plotted against times to generate growth curves.

[6] = system: Proteus mirabilis; test: as above; format: cell-based
Procedure: as §4, §5

[7] = system: S. saprophyticus; test: as above; format: cell-based, Staphylococcus saprophyticus
Procedure: as §4, §5

[8] = system: E. coli (UTI-89); test: Live/Dead BacLight bacterial viability assay (confocal imaging); format: cell-based, Escherichia coli; settings: 1 μM
Procedure: as §2, §3

[9] = lowest concentration that inhibits the growth of 90% of the inoculation, 3 hours, 0.1×PBS
[10] = minimum bactericidal concentration, 3 hours, 0.1×PBS

B1: RNase7: recombinant full-length human Ribonuclease 7, amino acids 1-128 (SEQ ID NO: 1), N-terminal His tag (protein, listed as Homo sapiens)
chain: KPKGMTSSQWFKIQHMQPSPQACNSAMKNINKHTKRCKDLNTFLHEPFSSVAATCQTPKIACKNGDKNCHQSHGPVSLTMCKLTSGKYPNCRYKEKRQNKSYVVACKPPQKKDSQQFHLVPVHLDRVL
modifications: N-terminal His tag
MIC against E. coli [1]: 0.26 µM
MIC for E. coli ([1]; E. coli UTI89): 0.26 LM
E. coli MIC [1, 9]: 0.26 µM
E. coli MBC [1, 10]: 0.53 µM
MIC for S. saprophyticus [2]: 0.22 µM
S. saprophyticus MIC [2, 9]: 0.22 µM
S. saprophyticus MBC [2, 10]: .44 µM
killing of S. saprophyticus in Bacterial Viability Assay ([3]; 30 min): did not
killing of S. saprophyticus in Bacterial Viability Assay ([3]; 3 hours): completely dead
MIC for P. mirabilis [4]: 0.88 µM
antimicrobial activity against P. mirabilis (in words) ([4]; MIC/MBC based, mostly compared to full-length RNase 7): MIC and MBC values that were identical
P. mirabilis MIC [4, 9]: .88 µM
P. mirabilis MBC [4, 10]: .88 µM
activity on E. coli growth at various pH levels ([5]; 2 μM peptide, 1% peptone water, pH 5, 7, 9, OD600 for 10 hours, FIG. 3): pH 9 (dotted line) decreases full-length RNase 7 activity; also recorded: activity was optimal at pH 7 against E. coli
activity on E. coli growth at various NaCl titers ([5]; 2 μM peptide, 50, 150, 500 mM NaCl, OD600 for 10 hours, FIG. 4): activity was not different at 50 and 150 mM NaCl
activity on E. coli growth at various CaCl2 titers ([5]; 2 μM peptide, CaCl2 up to 16.25 mM, OD600 for 10 hours, FIG. 5): activity is inversely related to CaCl2 concentration; also recorded: significantly reduced full-length RNase 7 activity against all uropathogens
activity on Proteus mirabilis growth at various CaCl2 titers ([6]; 2 μM peptide, 1.25, 7.5, 16.25 mM CaCl2, OD600 for 10 hours, FIG. 11): significantly reduced full-length RNase 7 activity against all uropathogens; also recorded: activity is significantly diminished at higher CaCl2 concentrations but relatively unaffected at 1.25 mM concentration
activity on Proteus mirabilis growth at various NaCl titers ([6]; 2 μM peptide, 50, 150, 500 mM NaCl, OD600 for 10 hours, FIG. 10): diminished significantly with additional of any NaCl titer; also recorded: activity markedly diminished at all salt concentrations
activity on Proteus mirabilis growth at various pH levels ([6]; 2 μM peptide, pH 5, 7, 9, OD600 for 10 hours, FIG. 9): maintained high activity at pH 5; also recorded: activity is potent at pH 5
activity on S. saprophyticus growth at various NaCl titers ([7]; 2 μM peptide, 50, 150, 500 mM NaCl, OD600 for 10 hours, FIG. 7): diminished in direct proportion to NaCl concentration; also recorded: activity inversely related to NaCl concentration
activity on S. saprophyticus growth at various CaCl2 titers ([7]; 2 μM peptide, CaCl2 up to 16.25 mM, OD600 for 10 hours, FIG. 8): significantly reduced full-length RNase 7 activity against all uropathogens; also recorded: activity is inversely related to CaCl2 concentration
activity on S. saprophyticus growth at various pH levels ([7]; 2 μM peptide, pH 5, 7, 9, OD600 for 10 hours, FIG. 6): activity is potent at all pH; also recorded: maintained high activity at pH 5
killing of E. coli in Bacterial Viability Assay ([8]; 30 min): did not
killing of E. coli in Bacterial Viability Assay ([8]; 3 hours): completely dead
